Data reported in patent publication US20240254239A1 (LAEKNA THERAPEUTICS SHANGHAI, published 2024).

What was measured:
human CD248 ECD = target: T1, human CD248 ECD (human, UniProt Q9HCU0 18-687); test: direct ELISA on coated recombinant ECD (30 ng/well), HRP-conjugated secondary antibody, luminescence
T1 construct: extracellular domain; also called recombinant extracellular domain of CD248
T1 sequence (looked up): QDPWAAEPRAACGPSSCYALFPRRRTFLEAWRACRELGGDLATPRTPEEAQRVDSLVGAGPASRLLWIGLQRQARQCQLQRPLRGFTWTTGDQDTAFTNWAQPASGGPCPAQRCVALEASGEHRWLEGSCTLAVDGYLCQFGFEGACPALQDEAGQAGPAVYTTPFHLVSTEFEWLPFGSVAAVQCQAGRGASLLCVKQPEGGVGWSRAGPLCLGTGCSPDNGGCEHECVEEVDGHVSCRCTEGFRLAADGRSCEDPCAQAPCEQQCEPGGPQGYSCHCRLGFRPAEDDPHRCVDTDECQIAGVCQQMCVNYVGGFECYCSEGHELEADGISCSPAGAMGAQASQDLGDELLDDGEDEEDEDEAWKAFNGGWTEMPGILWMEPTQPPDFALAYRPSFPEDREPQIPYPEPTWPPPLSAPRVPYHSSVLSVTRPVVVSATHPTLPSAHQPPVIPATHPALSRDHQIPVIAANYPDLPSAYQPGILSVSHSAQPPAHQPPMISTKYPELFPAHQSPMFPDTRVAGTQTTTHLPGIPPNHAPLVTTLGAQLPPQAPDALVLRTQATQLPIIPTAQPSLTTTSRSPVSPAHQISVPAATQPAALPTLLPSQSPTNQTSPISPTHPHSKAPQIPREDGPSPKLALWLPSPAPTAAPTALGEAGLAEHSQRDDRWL
Description: (§1) Briefly, recombinant extracellular domain of PDGFRb, FAPα, ULBP1, uPAR, IGF1R, SIRPA, PD-L1, ANTXR1, CD248, or GPC3 (30 ng/well) was coated on white optiplate™-384 well HB plate. After overnight coating, standard direct ELISA assay was performed. Luminescence signal was detected after using secondary antibody with HRP conjugated. Binding activity of each antibody was determined based on dose dependent binding curve.

[1] = target: T2, IGF-1R on TGFb1-activated primary human HSC cells (human, UniProt P08069 31-1367); test: flow cytometry on TGFb1-activated primary human HSC cells, 10 ug/ml antibody, fluorophore-conjugated secondary antibody
T2 construct: whole, on cells
T2 sequence (P08069 31-1367): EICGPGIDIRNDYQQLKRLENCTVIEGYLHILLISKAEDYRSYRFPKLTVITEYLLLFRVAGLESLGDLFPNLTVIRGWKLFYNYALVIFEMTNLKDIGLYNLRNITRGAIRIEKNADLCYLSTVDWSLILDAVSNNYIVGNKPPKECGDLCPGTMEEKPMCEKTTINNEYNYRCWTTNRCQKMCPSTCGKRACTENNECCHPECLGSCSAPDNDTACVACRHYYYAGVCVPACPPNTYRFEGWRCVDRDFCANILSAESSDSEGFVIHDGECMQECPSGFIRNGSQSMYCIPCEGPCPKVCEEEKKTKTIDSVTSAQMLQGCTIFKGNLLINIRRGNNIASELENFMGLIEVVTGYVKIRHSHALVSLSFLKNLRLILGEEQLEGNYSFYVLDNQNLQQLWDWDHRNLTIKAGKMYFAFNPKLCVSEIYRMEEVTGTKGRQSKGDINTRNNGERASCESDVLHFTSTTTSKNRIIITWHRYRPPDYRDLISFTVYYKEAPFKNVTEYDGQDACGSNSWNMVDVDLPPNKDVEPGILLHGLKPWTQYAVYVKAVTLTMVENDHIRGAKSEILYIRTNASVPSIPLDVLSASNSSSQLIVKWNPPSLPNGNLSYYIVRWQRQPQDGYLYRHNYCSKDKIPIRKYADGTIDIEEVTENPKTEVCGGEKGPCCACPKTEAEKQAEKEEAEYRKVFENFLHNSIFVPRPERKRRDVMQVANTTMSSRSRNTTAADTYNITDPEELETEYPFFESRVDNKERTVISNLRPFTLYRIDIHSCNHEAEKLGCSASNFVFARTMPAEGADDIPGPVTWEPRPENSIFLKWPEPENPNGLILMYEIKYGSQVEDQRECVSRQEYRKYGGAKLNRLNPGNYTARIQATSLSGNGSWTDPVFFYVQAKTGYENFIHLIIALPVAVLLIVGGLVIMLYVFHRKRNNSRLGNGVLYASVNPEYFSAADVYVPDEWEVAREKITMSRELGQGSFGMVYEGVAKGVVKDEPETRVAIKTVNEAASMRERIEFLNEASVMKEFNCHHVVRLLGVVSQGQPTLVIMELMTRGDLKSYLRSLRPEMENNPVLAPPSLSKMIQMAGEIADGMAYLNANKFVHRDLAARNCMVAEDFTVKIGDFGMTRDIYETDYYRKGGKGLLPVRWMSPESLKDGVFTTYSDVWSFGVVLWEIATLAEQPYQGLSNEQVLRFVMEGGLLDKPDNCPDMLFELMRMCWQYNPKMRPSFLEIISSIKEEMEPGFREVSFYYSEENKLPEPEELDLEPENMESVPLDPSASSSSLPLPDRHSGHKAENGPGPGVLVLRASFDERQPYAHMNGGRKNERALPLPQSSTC
Description: Relative expression levels of the antigens on activated HSC were assayed using FACS. Human primary hepatic stellate cells (ScienCell, 5301) were cultured in culture medium (ScienCell, 5300). The cells were activated using 2 ng/ml human TGFb1 (Sinobiological, 10804-HNAC) for 24 hours. These cells were then collected for FACS assay. Briefly, the cells were incubated with 10 μg/ml primary antibody in blocking buffer (10% FBS in PBS) at 4 °C for 1 hour. After two rounds of PBS washes, the cells were stained with secondary antibody conjugated with a fluorophore. The mean fluorescence intensity was measured using FACS. Among the antigens tested, fibroblast activation protein alpha (FAPα) was expressed at relatively high levels, while uPAR, IGF-1R, GPC3, CD248 and NKG2D ligands were expressed at relatively low levels on TGFb1-activated HSC cells.

human SIRPA ECD = target: T3, human SIRPA ECD (human, UniProt P78324 31-373); test: direct ELISA on coated recombinant ECD (30 ng/well), HRP-conjugated secondary antibody, luminescence
T3 construct: extracellular domain; also called recombinant extracellular domain of SIRPA
T3 sequence (P78324 31-373): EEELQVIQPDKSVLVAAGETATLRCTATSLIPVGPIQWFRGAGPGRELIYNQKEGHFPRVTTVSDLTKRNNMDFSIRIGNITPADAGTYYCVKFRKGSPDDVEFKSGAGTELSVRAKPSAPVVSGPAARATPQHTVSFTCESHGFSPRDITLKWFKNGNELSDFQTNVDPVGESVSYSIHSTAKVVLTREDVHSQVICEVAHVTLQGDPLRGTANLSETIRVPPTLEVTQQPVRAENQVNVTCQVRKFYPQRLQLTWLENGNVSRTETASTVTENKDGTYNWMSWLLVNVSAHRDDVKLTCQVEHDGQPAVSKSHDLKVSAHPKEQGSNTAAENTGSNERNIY
Description: as §1

Row | Binder | binding result [1] | EC50 (read off the curve) (human SIRPA ECD) | further results
1 | α-CD248 2 mIgG2a S239D/1332E (antibody, V domains shown, mIgG2a with S239D/I332E; also called α-CD248 2 mIgG2a S239D/I332E; exemplary anti-CD248 antibody (α-CD248 2)) VH: QVQLQESGPGLVRPSQTLSLTCTASGYTFTDYVIHWVKQPPGRGLEWIGYINPYDDDTTYNQKFKGRVTMLVDTSSNTAYLRLSSVTAEDTAVYYCARRGNSYDGYFDYSMDYWGSGTPVTVSS VL: DIQMTQSPSSLSASVGDRVTITCRASQNVGTAVAWLQQTPGKAPKLLIYSASNRYTGVPSRFSGSGSGTDYTFTISSLQPEDIATYYCQQYTNYPMYTFGQGTKVQIKR | – | – | EC50 (read off the curve) (human CD248 ECD): ~0.01 µg/mL
2 | α-IGF1R 1 S239D/1332E (antibody, human IgG1, kappa, V domains shown, hIgG1 with S239D/I332E; also called α-IGF1R 1 S239D/I332E; exemplary anti-IGF1R antibody (α-IGF1R 1)) VH: EVQLLESGGGLVQPGGSLRLSCAASGFTFSIYRMQWVRQAPGKGLEWVSGISPSGGTTWYADSVKGRFTISRDNSKNTLYLQMNSLRAEDTAVYYCARWSGGSGYAFDIWGQGTMVTVSS VL: DIQMTQSPLSLSASVGDRVTITCQASRDIRNYLNWYQQKPGKAPKLLIYDASSLQTGVPSRFGGSGSGTDFSFTIGSLQPEDIATYYCQQFDSLPHTFGQGTKLEIKR | binds | – | –
3 | α-IGF1R 2 S239D/1332E (antibody, human IgG1, kappa, V domains shown, hIgG1 with S239D/I332E; also called α-IGF1R 2 S239D/I332E; exemplary anti-IGF1R antibody (α-IGF1R 2)) VH: EVQLLESGGGLVQPGGSLRLSCAASGFTFSNYPMYWVRQAPGKGLEWVSRISSSGGRTVYADSVKGRFTISRDNSKNTLYLQMNSLRAEDTAVYYCARDRWSRSAAEYGLGGYWGQGTLVTVSS VL: not shown | binds | – | –
4 | α-SIRPA 1 S239D/1332E (antibody, human IgG1, kappa, V domains shown, Chimeric: murine variable regions, hIgG1 constant region with S239D/I332E; also called α-SIRPA 1 S239D/I332E; exemplary anti-SIRPA antibody (α-SIRPA 1)) VH: EVQLQQSGAELVKPGASVKLSCTTSGFNFKDMYIHWVKQRPQQGLEWIGRIDPENDDTKYDPKFQDKATITADTSSNTAYLQLSNLPSEDTAVYYCARGNYVHWGQGTLVTVSA VL: DIVLTQSPASLAVSLGQRATISCRASESVQYYGTSLMQWYQQKPGQPPKLLIYAASNVESGVPARFSGSGSGTDFSLNIYPVEEDDIAMYFCQQSRRVWTFGGGTKLEIKR | – | ~0.3 nM | –
5 | α-SIRPA 2 S239D/1332E (antibody, human IgG1, kappa, V domains shown, Chimeric: murine variable regions, hIgG1 constant region with S239D/I332E; also called α-SIRPA 2 S239D/I332E; exemplary anti-SIRPA antibody (α-SIRPA 2)) VH: EVQLQQSGAELVKPGASVKVSCTGSGFNFKDMYLHWVKQRPEQGLEWIGRIDPENDSTKYDPKFQDKATLTADTASNTAYLQISSLTSEDTAVYYCARGNYVHWGQGTLVTVSA VL: DIVLTQSPASLAVSLGQRATISCRASESVQYYGTSLMQWYQQKPGQPPKLLIYAASNVGSGVPARFSGSGSGTDFSLNIHPVEEDDIAMYFCQQTRRVWTFGGGTKLEIKR | – | ~0.3 nM | –
6 | α-SIRPA 3 S239D/1332E (antibody, human IgG1, kappa, V domains shown, Chimeric: murine variable regions, hIgG1 constant region with S239D/I332E; also called α-SIRPA 3 S239D/I332E; exemplary anti-SIRPA antibody (α-SIRPA 3)) VH: EVQLQQSGAELVKPGASVKLSCTASGFNIKDSYMHWVKQRTEQGLEWIGRIDPEDGETKYAPKFQGKATITADTSSNTAYLQLTSLTSEDTAVYYCARRGFYWGQGTTLTVSS VL: QIVLTQSPAIMSASPGEKVTLTCSASSSVSSSYLYWYQQKPGSSPKLWIYSTSNLASGVPARFSGSGSGTSYSLTISSMEAEDAASYFCYQWSTHPYTFGGGTKLEIKR | – | ~0.3 nM | –
